From US12365732 (23ANDME, dated 2025)

Target: T1, hu-CD96 (soluble, isoform 2 extracellular domain) (human, UniProt P40200 22-516, biotinylated in Octet and blocking ELISA)
T1 construct: the assays name only hu-CD96; also called hCD96; biotinylated hu-CD96
T1 sequence: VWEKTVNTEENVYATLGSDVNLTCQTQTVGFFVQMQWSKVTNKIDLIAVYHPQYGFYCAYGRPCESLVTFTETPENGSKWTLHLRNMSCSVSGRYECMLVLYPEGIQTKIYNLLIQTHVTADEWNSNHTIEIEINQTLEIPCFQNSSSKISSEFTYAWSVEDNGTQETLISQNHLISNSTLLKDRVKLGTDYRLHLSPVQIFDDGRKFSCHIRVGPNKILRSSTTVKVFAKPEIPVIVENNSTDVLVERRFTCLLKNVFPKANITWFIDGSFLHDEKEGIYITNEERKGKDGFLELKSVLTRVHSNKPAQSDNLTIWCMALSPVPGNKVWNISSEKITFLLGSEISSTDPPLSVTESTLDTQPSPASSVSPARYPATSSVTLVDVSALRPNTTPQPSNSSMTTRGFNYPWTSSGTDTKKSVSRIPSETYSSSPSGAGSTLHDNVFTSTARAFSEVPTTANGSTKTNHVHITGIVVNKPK
Experiment: BLI (Octet), biotin-CD96 on SA, Fab analyte

apparent Kd (pooled screen): 76 nM
B1: mAb1.v7 Fab (Fab, V domains shown)
VH: EVQLVQSGAEVKKPGASVKVSCKASGFTFTNNWMHWVRQAPGQGLEWIGMIHPNSGITNINEKFKNRVTMTTDTSTSTAYMELRSLRSEDTAVYYCRSDGTYEGYFDYWGQGTLVTVSS
VL: DIQLTQSPSSLSASVGDRVTITCKASQNVGTAIVWYQQKPGKAPKVLIYSASTRYTGVPSRFSGSGSGTDFTLTISSLQPEDFATYYCQQYSSSPLTFGQGTKVEIK
